What was measured:
Test in all cases: pull-down
[1] = molecular target: Myristoylated GINIP (myr-GINIP), C-terminally His-tagged (human, UniProt Q9UPV7 1-400, myristoylated (co-expression with N-myristoyl transferase))
GINIP ∆N16 = GINIP ∆N16 (human, UniProt Q9UPV7 17-400)
[2] = molecular target: GINIP WT, C-terminally His-tagged (pET21a(+)-GINIP-His) (human, UniProt Q9UPV7 1-400)

Measured: binding result

Sequence of Myristoylated GINIP (myr-GINIP), C-terminally His-tagged (Q9UPV7 whole entry): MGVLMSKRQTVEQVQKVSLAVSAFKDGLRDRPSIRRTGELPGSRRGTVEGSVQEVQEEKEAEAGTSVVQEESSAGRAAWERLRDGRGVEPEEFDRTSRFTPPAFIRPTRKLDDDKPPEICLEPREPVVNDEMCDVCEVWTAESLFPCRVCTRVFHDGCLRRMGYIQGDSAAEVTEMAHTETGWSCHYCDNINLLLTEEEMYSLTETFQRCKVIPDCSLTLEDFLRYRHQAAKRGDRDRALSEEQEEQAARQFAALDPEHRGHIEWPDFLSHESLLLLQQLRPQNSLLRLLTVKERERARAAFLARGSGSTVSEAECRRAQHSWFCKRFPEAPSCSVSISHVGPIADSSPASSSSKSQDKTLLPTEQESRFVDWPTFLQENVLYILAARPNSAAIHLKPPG
Sequence of GINIP WT, C-terminally His-tagged (pET21a(+)-GINIP-His) (Q9UPV7 whole entry): as above
Sequence of GINIP ∆N16 (Q9UPV7 17-400): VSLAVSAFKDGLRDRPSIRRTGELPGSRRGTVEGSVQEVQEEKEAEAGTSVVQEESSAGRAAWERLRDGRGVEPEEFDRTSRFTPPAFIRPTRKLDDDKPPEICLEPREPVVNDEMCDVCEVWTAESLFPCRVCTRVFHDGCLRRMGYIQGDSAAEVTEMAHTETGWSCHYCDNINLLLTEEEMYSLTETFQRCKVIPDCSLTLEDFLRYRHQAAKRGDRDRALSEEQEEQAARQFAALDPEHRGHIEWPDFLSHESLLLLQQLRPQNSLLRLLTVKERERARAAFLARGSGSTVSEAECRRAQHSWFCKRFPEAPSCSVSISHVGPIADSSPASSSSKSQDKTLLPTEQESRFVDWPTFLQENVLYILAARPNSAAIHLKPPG

B1: GST-Gαi3 (natural protein)
chain: MGCTLSAEDKAAVERSKMIDRNLREDGEKAAKEVKLLLLGAGESGKSTIVKQMKIIHEDGYSEDECKQYKVVVYSNTIQSIIAIIRAMGRLKIDFGEAARADDARQLFVLAGSAEEGVMTSELAGVIKRLWRDGGVQACFSRSREYQLNDSASYYLNDLDRISQTNYIPTQQDVLRTRVKTTGIVETHFTFKELYFKMFDVGGQRSERKKWIHCFEGVTAIIFCVALSDYDLVLAEDEEMNRMHESMKLFDSICNNKWFTDTSIILFLNKKDLFEEKIKRSPLTICYPEYTGSNTYEEAAAYIQCQFEDLNRRKDTKEVYTHFTCATDTKNVQFVFDAVTDVIIKNNLKECGLY
binds: all assays above

Source: paper PMC10153262 (bioRxiv, 2023)
